Test results: patent US12618044B2, “Specification of functional cranial placode derivatives from human pluripotent stem cells” (MEMORIAL SLOAN-KETTERING CANCER CENTER, priority 2013, dated 2026)

How the values were obtained:
Format in all cases: cell-based, human
[1] = tested on: hESC; experiment: Placode induction from hESC (N-SB versus PIP, SIX1 expression)
Experimental: A timed withdrawal of the BMP inhibitor Noggin during N-SB differentiation was also tested to determine if placodal fates could be induced via derepressing endogenous BMP signaling. A time course analysis was performed during which Noggin was removed at different time points of the N-SB protocol (FIG. 28A).
Withdrawal of the BMP inhibitor noggin during N-SB differentiation may enhance the emergence of placodal fates by de-repressing endogenous BMP signaling. To this end, a time course study was performed by removing noggin at different time points of the NSB protocol (FIG. 11A) while monitoring the induction of placodal marker (FIG. 11B) trophoectodermal, neurectodermal by qRT-PCR analysis at day 11 of differentiation. Withdrawal of noggin at day 2 or 3 of differentiation yielded efficient induction of Six1 while noggin withdrawal at day 1 of differentiation lead to the induction of Eya1 in the absence of Six1 expression.
Neural Induction and placode induction: Feeder-free neural induction was carried out as previously described (Chambers et al., 2009). Briefly, hESCs cultures were disaggregated using accutase for 20 minutes, washed using hESCs media and pre-plated on gelatin for 1 hour at 37° C. in the presence of ROCK inhibitor to remove MEFs. The non-adherent hESCs were washed and plated on matrigel at a density of 60,000 cells/cm2 on matrigel (BD) coated dishes in MEF conditioned hESCs media (CM) spiked with 10 ng/mL of FGF-2 and ROCK-inhibitor. The ROCK inhibitor was withdrawn after 24 hours, and hESCs were allowed to expand in CM for 2 days or until they were 95% confluent. The initial differentiation media conditions included knock out serum replacement (KSR) media with 10 μM TGF-β inhibitor (SB431542, Tocris) and 250 ng/mL of Noggin (R&D). Upon day 5 of differentiation, increasing amounts of N2 media (25%, 50%, and 75%) were added to the KSR media every two days while maintaining […] of Noggin and TGF-β inhibitor. Similar results could be obtained when using KSR-free conditions (E6 medium (Chen et al., 2011)) following adjustments in BMP signaling; data not shown). For placode induction, Noggin was removed at day3 of differentiation. In some experiments, BMP-4 (R&D 50 ng/ml), Noggin (R&D 250 ng/ml), DKK-1 (R&D 100 ng/ml), FGF8 (R&D 50 ng/ml), SU5402 (Tocris 10 μM), Wnt-3a (R&D 50 ng/ml), DAPT (Tocris, 10 μM), CHIR99021 (Stemgent, 3 μM), Cyclopamine (Tocris, 10 μM), Sonic Hedgehog (C25II-R&D 100 ng/ml), and Purmorphamine (Stemgent, 1 μM), were added.
Microscopy, antibodies, and flow cytometry: Cells were fixed using 4% paraformaldehyde for 15 minutes, washed with PBS, permeabilized using 0.3% Triton X in PBS, and blocked using 1% BSA. Primary antibodies used for microscopy included PAX6 (Covance, DSHB), TUJ1 (Covance), BRN3A (Chemicon), AP2a (DSHB), HNK1 (Sigma), PAX3 (DSHB), SIX1 (ABR, Atlas), ISL1 (DSHB), PERIPHERIN (Santa Cruz), GSU (gift A. McNeilly), CRYAB (Chemicon), DACH1 (Proteintech), EYA1 (gift Kawakami), E-CADHERIN (Abcam), FSH (gift A. McNeilly), GATA2 (Abcam), chick GFP (Abcam), hNCAM (Santa Cruz), GLUTAMATE (Sigma), KRT14 (Labvision), SIX6 (Atlas), LHX3 (Abcam), OVOL2 (Aviva), TFAP2A (DSHB), FOXG1 (gift E. Lai), hCA (Stem Cells), and Ki67 (Sigma). Appropriate Alexa 488, Alexa 568, Alexa 647 secondary antibodies (Molecular Probes) and/or DAPI counterstaining was used for visualization. For Flow Cytometry, cells were mechanically dissociated after exposure to accutase for 20 min at 25° C. To eliminate dead cell populations in FACS analysis, we used DAPI or 7-AAD according to manufacturer's recommendation. Cells were analyzed using FACScan (Becton Dickinson) and FlowJo software (Tree Star, Inc.).

[2] = tested on: SIX1::H2B-GFP reporter cells; experiment: PIP-E6 placode induction in E8/E6 media; conditions: days 2-4 of the PIP-E6 protocol
From the text: PIP protocol using E8/E6 cell culture media: E8/E6 cell culture media (Essential8™/Essential6™, Nat Methods. 2011 May; 8(5):424-9) comprises the ingredients DMEM/F12, ascorbic acid, selenum, insulin, NaHCO3, transferrin, FGF2 and TGFβ. […] The present example describes a modified PIP protocol that utilizes the BMP deficient E8/E6 media.
A Six1 knock in GFP reporter cell line (SIX1::H2B-GFP) was developed to monitor when cells have been transformed to a placode fate. (FIGS. 41A-41E). Culturing the reporter cells in E8/E6 media according to the KSR PIP protocol described herein, in which cells were cultured in media comprising the SMAD inhibitors SB431542 and LDN193189, wherein LDN193189 was withdrawn after 2 days of culture, yielded low levels of placode cells after 11 days of culture. (FIGS. 42A-42B). BMP4, which is not present in E8/E6 media, is necessary for cells to differentiate into non-neural ectoderm and placode, as evidenced by expression of the marker AP2. (FIGS. 43A-43C). […] (FIGS. 44A-44C). […] (FIGS. 45A-45B). […] (FIGS. 46 and 47). Although the yield of induced placode cells was low using the PIP-E6 protocol, the induction was highly consistent compared to the KSR PIP protocol. (FIG. 48).
In order to make the trigeminal placode fate the default fate when culturing using the PIP-E6 protocol, PIP-E6 was modified by adding CHIR (Wnt activator) to the culture protocol. […] (FIGS. 49A-49B). FIG. 50 depicts the pituitary, lens and trigeminal placodes that can be induced using the PIP-E6 culture protocol.

[3] = tested on: hESC; experiment: Real-Time PCR of pluripotency and germ layer markers in treated hESC
Experimental: There is also evidence for suppression of alternative embryonic germ layers such as Noggin-mediated suppression of SOX17 (endodermal lineage) and SB431542-mediated suppression of Brachyury (mesodermal lineage) (FIG. 1C).
Total RNA was extracted using an RNeasy kit (Qiagen). For each sample, 1 ug of total RNA was treated for DNA contamination and reverse transcribed using the Quantitect RT kit (Qiagen). Amplified material was detected using Quantitect SYBR green probes and PCR kit (Qiagen) on a Mastercycler RealPlex2 (Eppendorf). Results were normalized to a HPRT control and are from 4-6 technical replicates of 2-3 independent biological samples at each data point.

[4] = tested on: hESC; experiment: Floor plate induction from hESC (FOXA2 expression); conditions: added to neural rosette stage cells
Experimental: (§1) For MS5 induction, established methods previously reported were used (Perrier et al., 2004). Feeder free neural induction was carried out as previously described (Chambers et al., 2009). Briefly, hESCs cultures were disaggregated using accutase for 20 minutes, washed using hESCs media and pre-plated on gelatin for 1 hour at 37° C. in the presence of ROCK inhibitor to remove MEFs. The nonadherent hESCs were washed and plated on matrigel at a density of 20,000 cells/cm2 on matrigel (BD) coated dishes in MEF conditioned hESCs media (CM) spiked with 10 ng/mL of FGF-2 and ROCK-inhibitor. The ROCK inhibitor was withdrawn, and hESCs were allowed to expand in CM for 3 days or until they were nearly confluent. The initial differentiation media conditions included knock out serum replacement (KSR) media with […] TGF-b inhibitor (SB431542, Tocris) and 500 ng/mL of Noggin (R&D). Upon day 5 of differentiation, increasing amounts of N2 media (25%, 50%, 75%) was added to the KSR media every two days while maintaining 500 ng/mL of Noggin and TGF-b inhibitor. For FP induction, Sonic C25II was added at 200 ng/ml. In some experiments, DKK-1 (R&D 100 ng/ml) FGF8 (R&D 50 ng/ml), Wnt-1 (Peprotech 50 ng/ml) and Retinoic Acid (R&D 1 uM) were added.
Tissue was fixed using 4% paraformaldehyde and Picric acid for 15 minutes, washed with PBS, permeabalized using 0.3% Triton X in PBS, and blocked using 10% Donkey Serum. Primary antibodies used for microscopy included PAX6 (Covance), TUJ1 (Covance), ZO1 (Zymed), BF1 (FOXG1, gift E.Lai), TH (Pelfreez), NKX6.1 (DSHB) and FOXA2 (SantaCruz).
Based on the hypothesis that FP specification in the mouse occurs at early developmental stages, at the time of or prior to neural induction, the inventors repeated SHH induction studies at Day 9, the time of rosette specification, using classic stromal-feeder mediated neural induction protocols (Elkabetz et al., 2008). Under this paradigm the inventors noticed a drastic change in cell morphology restricted to the cells treated with SHH-C25II (FIG. 15B). […] In addition to decreased expression of BF1 the inventors also observed decreased expression of PAX6, another maker expressed in the AN (FIG. 1E). […] The inventors performed dose response studies to understand how FP marker induction compared to that of NKX6.1 expression; a gene known to respond to lower concentrations of SHH. […] At higher concentrations FP markers rapidly rise, while NKX6.1 expression tapers off (FIG. 15G).
Using this protocol, in combination with compositions and methods of the present inventions, the inventors aimed to optimize FP differentiation by adding Sonic C25II at different time points during neural induction and assaying for FOXA2 expression. Differentiation was initiated upon NSB exposure, and Sonic C25II was added at Day 1, Day 3, Day 5, or Day 7 (FIG. 16A). […] Furthermore, the differentiation conditions establish a robust platform for inducing human FOXA2+ cells in vitro.

[5] = tested on: hESC derived FP; experiment: A/P respecification of hESC derived FP by caudalizing factors
Experimental: as §1
The inventors contemplated the use of SIX6 as a putative marker of anterior FP identity. Thus SIX6 status of the hESC derived FP was used to mark respecification in response to known caudalizing agents such as FGF8, Wnt-1, and Retinoic Acid. Each of these caudalizing factors was added in combination with SHH and the resulting tissue was assessed for expression of the FP markers FOXA2 and NETRIN-1, the AN marker BF1, and putative anterior FP marker SIX6. FP generation was found not compromised in the presence of caudalizing factors.
The inventors discovered that different factors had varied effects on marker expression (FIG. 20C).
As mentioned above, studies had identified different enhancers that directed SHH expression to different A/P region along ventral axis (Jeong et al., 2008). […] In the absence of caudalizing factors (SHH C25II alone), LacZ expression was observed herein following transfection with the SBE2 but not the SBE1 enhancer supporting the hypothesis that hESC derived FP is anterior by default (FIG. 20D). In contrast SBE2 activity was abolished upon treatment with Wnt1 or FGF8 while SBE1 activity was induced under these conditions.

Molecule: Cc1c[nH]c(-c2cnc(NCCNc3ccc(C#N)cn3)nc2-c2ccc(Cl)cc2Cl)n1 [CHIR99021]
- placode fate ([1]; high concentrations, starting at day 3 of PIP): suppressed placode
- default placode fate [2]: induction of trigeminal placodes

Molecule: NC(=O)c1ccc(-c2nc(-c3ccc4c(c3)OCO4)c(-c3ccccn3)[nH]2)cc1 [SB431542, 4-[4-(1,3-benzodioxol-5-yl)-5-(2-pyridinyl)-1H-imidazol-2-yl]-benzamide]
- Brachyury (mesodermal lineage) [3]: suppression
- CDX2 expression [3]: dramatic increase
- Nanog expression [3]: rapid loss

Molecule: Noggin
- CDX2 expression [3]: Suppression
- SOX17 (endodermal lineage) [3]: suppression

B1: Wnt-1: caudalizing factor, wingless-type MMTV integration site family, member 1 (protein, UniProt P04628 28-370, looked up)
Proto-oncogene Wnt-1: ANSSGRWWGIVNVASSTNLLTDSKSLQLVLEPSLQLLSRKQRRLIRQNPGILHSVSGGLQSAVRECKWQFRNRRWNCPTAPGPHLFGKIVNRGCRETAFIFAITSAGVTHSVARSCSEGSIESCTCDYRRRGPGGPDWHWGGCSDNIDFGRLFGREFVDSGEKGRDLRFLMNLHNNEAGRTTVFSEMRQECKCHGMSGSCTVRTCWMRLPTLRAVGDVLRDRFDGASRVLYGNRGSNRASRAELLRLEPEDPAHKPPSPHDLVYFEKSPNFCTYSGRLGTAGTAGRACNSSSPALDGCELLCCGRGHRTRTQRVTERCNCTFHWCCHVSCRNCTHTRVLHECL
- FP competency / FOXA2 induction [4]: not sufficient
- FP competency / FOXA2 induction ([4]; listed as WNT1): no effect
- midbrain FP markers CORIN and NOV [5]: significant increase
- SBE1 activity ([5]; SHH enhancer LacZ construct): induced
- SBE2 activity ([5]; SHH enhancer LacZ construct): abolished
- BF1 expression ([5]; in combination with SHH): dramatic reduction
- FP production based on FOXA2 and Netrin-1 expression ([5]; in combination with SHH): significantly potentiated
- SIX6 expression ([5]; in combination with SHH): significant reduction

B2: Wnt3A: WNT protein, caudalizing cue (protein, UniProt P56704 19-352, looked up)
Protein Wnt-3a: SYPIWWSLAVGPQYSSLGSQPILCASIPGLVPKQLRFCRNYVEIMPSVAEGIKIGIQECQHQFRGRRWNCTTVHDSLAIFGPVLDKATRESAFVHAIASAGVAFAVTRSCAEGTAAICGCSSRHQGSPGKGWKWGGCSEDIEFGGMVSREFADARENRPDARSAMNRHNNEAGRQAIASHMHLKCKCHGLSGSCEVKTCWWSQPDFRAIGDFLKDKYDSASEMVVEKHRESRGWVETLRPRYTYFKVPTERDLVYYEASPNFCEPNPETGSFGTRDRTCNVSSHGIDGCDLLCCGRGHNARAERRREKCRCVFHWCCYVSCQECTRVYDVHTCK
- otic placode compatible population ([1]; pre-placode cells): induction of a population of cells coexpressing SIX1 and SOX10
- FP competency / FOXA2 induction [4]: not sufficient
